Test results from patent US20220354929A1, “PEPTIDES AND USES THEREOF” (LATERAL IP PTY LTD, priority 2019, published 2022).
Where “and” joins values, the source holds several entries; their conditions need not be identical. Identical values can stand only once. Entries after “also recorded” stand apart in the source; their conditions may differ.

How the values were obtained:
dorsal horn neurones = test: whole-cell patch clamp recording in spinal cord slices from Chung models of neuropathic pain: membrane properties of dorsal horn neurones; type: cell-based, rat; conditions: for ΔVm, change in membrane potential: prolactin 500 nM vs rest
From the text: (§1) An in vitro spinal cord slice with intact dorsal root afferents combined with single-cell whole-cell patch clamp electrophysiological recording techniques was used to assess the electrophysiological properties of the peptides having the amino acid sequence of SEQ ID NO:2, 3, 4 and 5.
The spinal nerve ligation model (Chung model) was first reported by Kim and Chung (1992; Pain, 50(3):355-63) and involves a single tight ligation of the L5 spinal nerve. […] This model has been used as a “gold standard” model for assessing the efficacy of novel compounds targeting neuropathic pain.
Adult male Sprague-Dawley rats, 8-9 weeks old, weighing 220-250 g at the time of surgery, were purchased from Charles River UK Ltd. The animals were housed in groups of 4 in an air-conditioned room on a 12-hour light/dark cycle. Food and water were available ad libitum. They were allowed to acclimatise to the experimental environment for three days by leaving them on a raised metal mesh for at least 40 min. The baseline paw withdrawal threshold (PWT) was examined using a series of graduated von Frey hairs for 3 consecutive days before surgery and re-assessed on the 6th to 8th day after surgery and on the 12th to 14th day after surgery before drug dosing. Each rat was anaesthetized with 5% isoflurane mixed with oxygen (2L per min) followed by an intramuscular (i.m.) injection of ketamine 90 mg/kg plus xylazine 10 mg/kg. The back was shaved and sterilized with povidone-iodine. The animal was placed in a prone position and a para-medial incision was made on the skin covering the L4-6 level. The L5 spinal nerve was carefully isolated and tightly ligated with 6/0 silk suture. The wound was then closed in layers after a complete hemostasis. A single dose of antibiotics (Amoxipen, 15 mg/rat, i.p.) was routinely given for prevention of infection after surgery. The animals were placed in a temperature-controlled recovery chamber until fully awake before being returned to their home cages.
(§2) Chung model rats, aged 8 to 12 weeks, were housed in an air-conditioned room on a 12 hour light/dark cycle with food and water available ad libitum. The rats were terminally anaesthetized using isofluorane and decapitated. The vertebral column, rib cage and surrounding tissues were rapidly removed and pinned under ice-cold (<4° C.), high sucrose-containing artificial cerebrospinal fluid (aCSF) comprising: 127 mM sucrose, 1.9 mM KCl, 1.2 mM KH2PO4, 0.24 mM CaCl2, 3.9 mM MgCl2, 26 mM NaHCO3, 10 mM D-glucose and 0.5 mM ascorbic acid. A laminectomy was performed and the spinal cord and associated roots gently dissected and teased out of the spinal column and surrounding tissues. Dura and pia mater and ventral roots were subsequently removed with fine forceps and the spinal cord hemisected. Care was taken to ensure dorsal root inputs to the spinal cord were maintained. The hemisected spinal cord-dorsal root preparations were secured to a tissue slicer and spinal cord slices (400 to 450 μm thick) with dorsal roots attached were cut in chilled (<4° C.) high sucrose aCSF using a Leica VT1000s microtome.
(§3) Slices were transferred to a small beaker containing ice cold aCSF with 127 mM NaCl, 1.9 mM KCl, 1.2 mM KH2PO4, 1.3 mM MgCl2, 2.4 mM CaCl2, 26 mM NaHCO3 and 10 mM D-glucose, and rapidly warmed to 35° C. ±1° C. in a temperature-controlled water bath over a 20 minute period, then subsequently removed and maintained at room temperature (22° C. ±2° C.) prior to electrophysiological recording. Electrophysiological recording was performed in aCSF comprising 127 mM NaCl, 1.9 mM KCl, 1.2 mM KH2PO4, 1.3 mM MgCl2, 2.4 mM CaCl2, 26 mM NaHCO3 and 10 mM D-glucose.
Whole-cell recordings were performed at 34-35° C. from Lamina I or II neurones in the dorsal horn of the spinal cord slices using Axopatch 1D and/or Multiclamp 700B amplifies and using the “blind” version of the patch-clamp technique. […]

[1] = test system: dorsal root afferent-mediated synaptic inputs to dorsal horn neurones; test: whole-cell recording in spinal cord slices from Chung models: dorsal root afferent-mediated synaptic inputs (evoked EPSPs/IPSPs); type: cell-based, rat; conditions: for effect on dorsal root-evoked IPSPs (in words): prolactin 500 nM, 0.1 Hz and 5 Hz
Method: as §1, §2, §3
Whole-cell recordings were performed at 34-35° C. from Lamina I or II neurones in the dorsal horn of the spinal cord slices using Axopatch 1D and/or Multiclamp 700B amplifies and using the “blind” version of the patch-clamp technique.
Patch pipettes were pulled from thin-walled borosilicate glass with resistances of between 3 and 8 MS2 when filled with intracellular solution (140 mM potassium gluconate, 10 mM KCl, 1 mM EGTA-Na, 10 mM HEPES, 4 mM Na2ATP, 0.3 mM Na-GTP). The peptides of SEQ ID NOs:2, 3, 4 or 5 (LAT7771, LAT7772, LAT7773 or LAT7774) were diluted in the tissue bath at a concentration of 5 μM.
A concentric bipolar stimulating electrode was placed appropriately either on the dorsal root or dorsal root entry zone to evoke postsynaptic potentials/currents in recorded cells (see FIG. 1). […] EPSPs/EPSCs were confirmed as monosynaptic on the basis of being characterised by a constant latency and rise-time with few failures.
Recordings were monitored on an oscilloscope and stored on digital audio tapes for later off-line analysis. In addition, data were low-pass filtered at 2-5 kHz, (1 kHz for voltage-clamp data), digitized at 2-10 kHz and stored on a PC running pCLAMP 10 data acquisition software (Axon Instruments). Analysis of electrophysiological data was carried out using Clampfit 10 software.

[2] = peptide 5 μM, responding neurones
[3] = prolactin 500 nM, control = 100

CRIIHNNNCG [LAT7772]
effect on membrane potential / postsynaptic membrane properties (in words) (dorsal horn neurones; peptide 5 μM): overall had little effect on membrane potential; also recorded: small membrane depolarisation in 2 neurones; also recorded: both membrane depolarisations and hyperpolarisations; also recorded: hyperpolarisation | effect on neuronal input resistance (in words) (dorsal horn neurones; peptide 5 μM): decrease in neuronal input resistance in all 5 neurones; also recorded: significant decrease in neuronal input resistance; also recorded: reduction in neuronal input resistance | neuronal input resistance, of control (dorsal horn neurones; peptide 5 μM): 60.1±12.3 % of control | change in neuronal input resistance (dorsal horn neurones; peptide 5 μM vs control): 149.1±81.7 MS2 | ΔIR, change in neuronal input resistance (dorsal horn neurones; peptide 5 μM vs control, table prints control minus drug, text the magnitude): 149.1 MΩ | Input Resistance, mean in presence of peptide (dorsal horn neurones; peptide 5 μM, all cells): 172.3 MΩ | neuronal input resistance in the presence of peptide (dorsal horn neurones; peptide 5 μM, all cells): 172.3±33.2 MS2 | Membrane Potential, mean in presence of peptide (dorsal horn neurones; peptide 5 μM, all cells, ipsilateral to injury): −58.7±4.8 mV and −58.7 mV | Normalised Input Resistance, mean in presence of peptide (dorsal horn neurones; peptide 5 μM, control = 100): 60.1 | Normalised Input Resistance, ΔIR (dorsal horn neurones; peptide 5 μM, control = 100): 39.9 | reversal potential of peptide-induced response (intersection of VI relations) (dorsal horn neurones; peptide 5 μM, individual neurones): around −78 mV and ~−55 mV and −100 mV and −60 mV and around −60 mV | membrane depolarisation in individual neurones (dorsal horn neurones; [2]): 12.7 mV | membrane hyperpolarisation in individual neurones (dorsal horn neurones; [2]): 3.5 mV and 9.9 mV | Normalised Membrane Potential, mean in presence of peptide (dorsal horn neurones; peptide 5 μM, rest = 100): 98.6 | Normalised Membrane Potential, ΔVm (dorsal horn neurones; peptide 5 μM, rest = 100): 1.4 | effect on dorsal root-evoked EPSPs / excitatory synaptic transmission (in words) ([1]; peptide 5 μM, dorsal root stimulation 0.1 Hz): suppressed dorsal root-evoked excitatory posts-synaptic potentials (EPSPs) in all neurones tested; also recorded: suppressive effect on EPSPs; also recorded: suppressed dorsal root afferent-mediated excitatory synaptic transmission

B1: Prolactin: native prolactin peptide (e.g., human prolactin of SEQ ID NO:30); parent prolactin protein (protein)
chain: MNIKGSPWKGSLLLLLVSNLLLCQSVAPLPICPGGAARCQVTLRDLFDRAVVLSHYIHNLSSEMFSEFDKRYTHGRGFITKAINSCHTSSLATPEDKEQAQQMNQKDFLSLIVSILRSWNEPLYHLVTEVRGMQEAPEAILSKAVEIEEQTKRLLEGMELIVSQVHPETKENEIYPVWSGLPSLQMADEESRLSAYYNLLHCLRRDSHKIDNYLKLLKCRIIHNNNC
Input Resistance, mean in presence of prolactin (dorsal horn neurones; prolactin 500 nM): 637.3 MΩ | effect on membrane potential (in words) (dorsal horn neurones; prolactin 500 nM): principally induced membrane depolarisation | effect on neuronal input resistance (in words) (dorsal horn neurones; prolactin 500 nM): increase in neuronal input resistance | neuronal input resistance in the presence of prolactin (dorsal horn neurones; prolactin 500 nM): 637.3±301.1 MS2 | increase in neuronal input resistance (dorsal horn neurones; prolactin 500 nM vs control): 79.0±60.5 MS2 | ΔIR, change in neuronal input resistance (dorsal horn neurones; prolactin 500 nM vs control): −79.0 MΩ | ΔVm, change in membrane potential (dorsal horn neurones): −2.8 mV | ΔVm, change in membrane potential (dorsal horn neurones; listed as prolactin): 2.8±2.0 mV | Membrane Potential, mean in presence of prolactin (dorsal horn neurones; prolactin 500 nM, all cells): −52.0 mV | Membrane Potential, mean in presence of prolactin (dorsal horn neurones; prolactin 500 nM, all cells, listed as prolactin): −52.0±8.4 mV | Normalised Input Resistance, mean in presence of prolactin (dorsal horn neurones; [3]): 113.9 | Normalised Input Resistance, ΔIR (dorsal horn neurones; [3]): −13.9 | effect on membrane potential (in words) (dorsal horn neurones; prolactin 500 nM, listed as prolactin): small membrane depolarisation in 2 neurones; also recorded: little effect on a further dorsal horn neurone; also recorded: marginal membrane depolarisation | reversal potential of prolactin-induced depolarisation (VI relations) (dorsal horn neurones; prolactin 500 nM, one cell): around −90 mV | Normalised Membrane Potential, mean in presence of prolactin (dorsal horn neurones; prolactin 500 nM, rest = 100): 95.8 | Normalised Membrane Potential, ΔVm (dorsal horn neurones; prolactin 500 nM, rest = 100): 4.2 | effect on dorsal root-evoked IPSPs (in words) [1]: no effect on IPSPs evoked by dorsal root stimulation in one cell | effect on dorsal root-evoked IPSPs (in words) ([1]; listed as prolactin): little effect on dorsal root stimulated inhibitory post-synaptic potentials (IPSPs)
